Experiment [1] deals with untagged BrxU (Escherichia fergusonii ATCC 35469). Description: SEC; analytical SEC, Superdex 200 Increase 5/150, 20 mM Tris-HCl pH 7.9, 150 mM NaCl; 500 nM BrxU pre-incubated at 37°C for 15 min; no nucleotide, no MgSO4; dimer to monomers. On the technique in general: Size exclusion chromatography separates by hydrodynamic size, large species first.
Experiment [2] has as its target His6-BrxU WT (Escherichia fergusonii ATCC 35469). Description: SEC; analytical SEC, Superdex 200 Increase 5/150, 20 mM Tris-HCl pH 7.9, 150 mM NaCl; 500 nM BrxU pre-incubated at 37°C for 15 min with 10 mM MgSO4, no nucleotide; dimer to monomers.

Take untagged BrxU (enzyme): the stoichiometry N – broadly, a count of units in the complex or per binding partner – in experiment [1] came to 2.
The substance His6-BrxU WT (enzyme) returned a stoichiometry N in experiment [2] of 2.
